Changes are numbered by the printed parent chain. In names and notes the source's numbering stands.

The target of series [1] is T1, Interleukin 1 receptor type I (Homo sapiens, UniProt P14778).
T1 construct: purchased R&D Systems
T1 sequence (P14778 18-569): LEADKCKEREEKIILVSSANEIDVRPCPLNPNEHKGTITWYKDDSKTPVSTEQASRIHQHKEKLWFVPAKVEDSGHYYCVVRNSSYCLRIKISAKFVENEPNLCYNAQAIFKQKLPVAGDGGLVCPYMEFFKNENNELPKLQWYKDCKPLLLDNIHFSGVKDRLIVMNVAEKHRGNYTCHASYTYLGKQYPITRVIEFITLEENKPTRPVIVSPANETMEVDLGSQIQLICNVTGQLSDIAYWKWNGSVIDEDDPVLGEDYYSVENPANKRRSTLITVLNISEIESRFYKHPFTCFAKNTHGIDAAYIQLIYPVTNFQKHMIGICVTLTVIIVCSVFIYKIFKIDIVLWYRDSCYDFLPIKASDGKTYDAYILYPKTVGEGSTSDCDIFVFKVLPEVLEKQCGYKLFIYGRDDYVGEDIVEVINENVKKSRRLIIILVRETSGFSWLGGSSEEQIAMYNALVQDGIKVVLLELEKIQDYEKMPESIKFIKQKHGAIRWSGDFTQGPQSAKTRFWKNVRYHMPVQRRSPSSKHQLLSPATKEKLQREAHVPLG
The experiment in a line: SPR binding affinity on a BIAcore system. The note with it: immobilized receptor on CM3 chip, 1:1 binding stoichiometry. The procedure: Conjugates of L12-HES with IL1RA were tested for binding affinity to its natural binding partner using SPR on a BIAcore system. Interleukin 1 receptor type I (R&D Systems) was immobilized on the chip surface and the kinetic binding parameters were determined for the conjugate in comparison to the unmodified protein (chip: CM3, immobilization: 950 RU, flow rate 30 μl/min, association 180 s, dissociation 900 s, regeneration: 6 s with 5 mM glycine buffer, pH 2.0). The curves were analyzed by assuming a 1:1 binding stoichiometry.
In general terms: Surface plasmon resonance follows binding to a sensor surface in real time, without labels.

A further series concerns peptidyl prolyl bonds. Put plainly: Prolyl isomerase activity assay. It counts as biochemical. As to the method:
Prolylisomerases like SlyD catalyze the trans to cis isomerization of peptidyl prolyl bonds. The prolyl isomerase activities of SlyD and the L12-HES-SlyD conjugate were measured by a prolyl isomerase activity assay according to Zoldak et al. (2009, Biochemistry, 48, 10423-10436). The rate constant of the cis to trans isomerization of the prolyl bond was determined using Origin 8.1. […] The catalytic activity of unmodified SlyD is 5.6·10^6 M^−1s^−1 and the activity of the L12-HES-SlyD conjugate is 6.0·10^6 M^−1s^−1 (107% of the activity of unconjugated SlyD). The higher activity of the conjugate compared to unmodified SlyD is within the error of the assay.

Series [2] in a line: Stability tests of HES-protein conjugates at different pH, 40° C., 20 days. The note with it: protein conjugate 1 mg/ml. It counts as physicochemical. As to the method: For stability tests at pH 4.0, 5.5, 7.0 and 8.0, the conjugates were diluted into final buffer conditions of 20 mM acetate (pH 4.0 and 5.5) or 10 mM phosphate (pH 7.0 and 8.0), 0.5 mM ETDA, 154 mM NaCl to a final concentration of 1 mg/ml. The conjugates were stored at 40° C. for 20 days and analyzed by RP-HPLC (example for Ubi is shown in FIG. 3), SEC (as described in example C1) or SDS-PAGE (as described in example C1).

In turn, “IL1RA that is conjugated to HES via N-terminal coupling: IL1RA that is conjugated to HES via N-terminal coupling” showed an association rate ka in series [1] of 263000 M⁻¹ s⁻¹.
The same measure, in the same setting: then “unmodified IL1RA: interleukin-1 receptor antagonist (Kineret®), unconjugated”, with 588000 M⁻¹ s⁻¹.

B1: unmodified SlyD: SlyD D101C, sensitive to lysis protein D, a prolylisomerase, unconjugated (protein, UniProt P0A9K9 1-196, looked up, variant D101C)
FKBP-type peptidyl-prolyl …: MKVAKDLVVSLAYQVRTEDGVLVDESPVSAPLDYLHGHGSLISGLETALEGHEVGDKFDVAVGANDAYGQYDENLVQRVPKDVFMGVDELQVGMRFLAETCQGPVPVEITAVEDDHVVVDGNHMLAGQNLKFNVEVVAIREATEEELAHGHVHGAHDHHHDHDHDGCCGGHGHDHGHEHGGEGCCGGKGNGGCGCH
For the molecule B1, in the series with peptidyl prolyl bonds, the “catalytic activity (prolyl isomerization)” value came out at 5.6e+06 M⁻¹ s⁻¹.

B2: L12 X12 SlyD (conjugate, UniProt P0A9K9 1-196, looked up)
FKBP-type peptidyl-prolyl …: B1 FKBP-type peptidyl-prolyl … with C101D
modifications: HES X12 via linker L12
For the molecule B2, the “catalytic activity (prolyl isomerization)” value in the series with peptidyl prolyl bonds amounted to 6e+06 M⁻¹ s⁻¹. The “% of the activity of unconjugated SlyD” value with peptidyl prolyl bonds (relative to unconjugated SlyD) was 107%. The “conjugate degradation after 20 days (%) pH 7.0” value in series [2] (10 mM phosphate pH 7.0, 40° C.) was found to be 3.4%. The “conjugate degradation after 20 days (%) pH 8.0” value in series [2] (10 mM phosphate pH 8.0, 40° C.) was 9.0%. Further, in series [2] (20 mM acetate pH 5.5, 40° C.), the “conjugate degradation after 20 days (%) pH 5.5” value was 1.4%.
